Results as given in publication PMC11432006 (2024).

How the values were obtained:
[1] = target: T1, GFP-BC2-tag; experiment: SPR; 5 mM DTT (reduced)
T1 chain: PDRKAAVSHWQQ

[2] = target: T1, GFP-BC2-tag; experiment: SPR

- Kd [1]: 55.2 nM
- Kd [2]: 9.28 nM
B1: anti-BC2-tag VHH (BC2-Nb) (VHH)
VHH: QVQLVESGGGLVQPGGSLTLSCTASGFTLDHYDIGWFRQAPGKEREGVSCINNSDDDTYYADSVKGRFTIFMNNAKDTVYLQMNSLKPEDTAIYYCAEARGCKRGRYEYDFWGQGTQVTVSS
